In article PMC4909209:

What was measured:
[1] = molecular target: ubiquitin tagged Ac-AChBP (Aplysia californica acetylcholine binding protein) (Aplysia californica); test: radioligand binding
[2] = molecular target: de-tagged Ls-AChBP (Lymnaea stagnalis acetylcholine binding protein) (Lymnaea stagnalis) (UniProt P58154); test: radioligand binding

Substance | Ki [1] [nM] | Ki [2] [nM]
alpha-conotoxin ImI (from UniProt P50983 5-17) (peptide) | 3 | > 10000
alpha-conotoxin LsIA (peptide) | 11 | 700
